{"source": "patent US7067633B2", "about": "“Targeting cellular entry, cell survival, and pathogenicity by dynein light chain 1/PIN in human cells” (Board of Regents, The University of Texas System, priority 2003, dated 2006)", "molecules": {"B1": {"name": "[…] Pak1 auto inhibitory fragment used as an inhibitor (Pak1 amino acids 83–149) (protein, UniProt Q13153 83-149, looked up, fragment)", "chain": "HTIHVGFDAVTGEFTGMPEQWARLLQTSNITKSEQKKNPQAVLDVLEFYNSKKTSNSQKYMSFTDKS"}, "B2": {"name": "DLC1-66 peptide: SEQ ID NO:11; DLC1/PIN mutant, amino acids 1–66, lacking the C-terminal 23 amino acids (Pak1 binding and phosphorylation sites) (protein, listed as Homo sapiens)", "chain": "MCDRKAVIKNADMSEEMQQDSVECATQALEKYNIEKDIAAHIKKEFDKKYNPTWHCIVGRNFGSYV"}, "B3": {"name": "DLC1 1-68R mutant: DLC1 mutant lacking amino acids 67–89, behaves as a dominant-negative (protein, UniProt P63167 1-66, looked up, fragment)", "chain": "B2 chain"}}, "key": {"[1]": {"tested_on": "DLC1/PIN", "test": "In vivo 32P-orthophosphate labeling and immunoprecipitation of T7-DLC1/PIN", "assay_type": "cell-based, human", "conditions": "MCF-7 cells, coexpression with T7-DLC1/PIN", "description": "FIGS. 2A–2G—MapDLC1/PINg of interaction domains of Pak1 and DLC1/PIN. FIG. 2A: Identification of Pak1 domains that interact with DLC1/PIN. GST-Pak1 fusion proteins containing wild-type (amino acids 1–545), kinase domain (amino acids 270–545), N-terminal domain (amino acids 1–132), PIX binding domain (amino acids 132–270), Nck-binding domain (amino acids 1–75), Cdc42/Rac-interacting (CRIB) domain (amino acids 52–132), and auto-inhibitory domain (amino acids 75–149) were incubated with in vitro translated DLC1/PIN (amino acids 1–89), and binding was analyzed by GST pull-down assay. FIG. 2B: Identification of the DLC1/PIN region that is involved in the binding of Pak1. GST-fusions of various lengths of DLC1/PIN were used in the GST pull-down assay using ^35S-labelled Pak1 (amino acids 1–545). FIGS. 2C–2G—Pak1 phosphorylation of DLC1/PIN. FIG. 2C: In vitro kinase assay using GST-DLC1/PIN as a substrate and purified bacterially expressed Pak1 as an enzyme. MBP was used as a positive control. FIG. 2D: ZR75R cells stably expressing T7-DLC1/PIN were labeled in vivo with ^32P-orthophosphate, serum starved, treated with EGF or HRG, and immunoprecipitated and phosphorylation status of DLC1/PIN was visualized by autoradiography. […] Cells were metabolically labeled with ^32P orthophosphate, treated with or without EGF (1 nM) and phosphorylation of T7-DLC1/PIN was analyzed by immunoprecipitation. […]"}, "[2]": {"tested_on": "DLC1 promoter", "test": "DLC1 promoter luciferase reporter", "assay_type": "cell-based, human", "conditions": "MCF-7 cells, expression of inhibitor", "description": "FIGS. 21A–21J—Estrogenic signals upregulate DLC1 expression via Pak1 pathway. FIG. 21A: DLC1 upregulation by E2 or Tam. MCF-7/Tam-sen, MCF-7/TAMR1 and Ishikawa cells were treated with E2 (10^−9M) or Tam (10^−9M) for 24 h, and cell lysates were assayed for DLC1 and Pak1 protein expression. FIG. 21B: Upregulation of DLC1 mRNA in MCF-7 cells treated with different doses of E2 for 24 h. FIG. 21C: Effect of different periods of E2 treatment and cycloheximide (CHX) and Actinomycin D (ACTD) treatment on the ability of E2 to upregulate DLC1 mRNA in MCF-7 cells. FIG. 21D: DLC1 mRNA and protein levels in MCF-7/DA-Pak1 cells by Northern and Western blotting. FIG. 21E: DLC1 mRNA and protein levels in MCF-7/DN-Pak1 cells by Northern and Western blotting. FIG. 21F: Downregulation of DLC1 protein expression in MCF-7 cells treated with Pak1-siRNA for 24 h. FIG. 21G: Modulation of DLC1 promoter (1245 bp) luc activity by the expression of wtPak1 or DN-Pak1. MCF-7 cells were transfected with DLC1-luc and transfected with either wtPak1 or Pak1 inhibitor 83-149 and luc activity was measured after 24 h. FIG. 21H: Upregulation of DLC1 promoter luc activity following pak1 induction in MCF-7/DA-Pak 1 cells. FIG. 21I: Downegulation of DLC1 promoter luc activity in MCF-7/DN-pak1 cells. […]"}, "[3]": {"tested_on": "SKBR-3 cells", "test": "Pak1-mediated macropinocytosis, vesicle formation by confocal microscopy", "assay_type": "cell-based, human", "description": "FIG. 3—Requirement of DLC1/PIN in Pak1 mediated macropinocytosis. SKBR-3 cells were cotransfected with RFP-DLC1/PIN and GFP-Pak1 (upper panel), RFP-DLC1/PIN-S88A, and GFP-Pak1 (middle panel) and RFP-DLC1-1-66, and GFP-Pak1 (lower panel). Vesicle formation and localization of GFP and RFP proteins were analyzed by confocal microscopy. Ten randomly selected fields were analyzed for each condition. The experiment was repeated twice with similar results. Quantitation of vesicles formation was done using the following scoring system. −, cells containing 0–9 vesicles; +, cells containing 10–20 vesicles; and ++, cells containing >20 vesicles.\nRequirement of DLC1/PIN in Pak1 mediated macropinocytosis. […] The inventors have used the fluorescein isothiocyanate (FITC)-labeled Dextran as a marker of endocytosis using a well-established dextran beads uptake assay (Dharmawardhane et al., 2000). […]\nSK-BR3 cells were cotransfected with RFP-DLC1 and GFP-Pak1 (upper panel), RFP-DLC1-S88A and GFP-Pak1 (middle panel), and RFP-DLC8-1-66 and GFP-Pak1 (bottom panel). Vesicle formation and localization of GFP and RFP proteins were analyzed by confocal microscopy. Ten randomly selected fields were analyzed for each condition. […]"}, "[4]": {"tested_on": "Human dendritic cells", "test": "Macropinocytosis in dendritic cells, FITC-dextran uptake", "assay_type": "cell-based", "conditions": "expression in human dendritic cells", "description": "(§1) FIG. 16—DLC1 is required for macropinocytosis in dendritic cells. Human dendritic cells were plated on cover sips in 6-well tissue culture plates, transfected with RFP-DLC1 wild type or DLC1-1-66 mutant lacking Pak1 binding and phosphorylation sites. After 12 hours, FITC-dextran was added to the culture medium for 20 min and cells were fixed and stained with Topro-3 (a DNA dye) and analyzed by confocal microscopy for RFP-DLC1 (red) or RFP-DLC1-1-66 (red) and FITC-dextran (green). White arrows point to RFP-DLC1-1-66 transfected cells and red arrows point to cells transfected with RFP-DLC1.\nas §1, with “Human” for “FIG. 16—DLC1 is required for macropinocytosis in dendritic cells. Human”, “slips” for “sips”"}, "[5]": {"tested_on": "ER transactivation (ERE-luc)", "test": "ERE-luc transactivation assay", "assay_type": "cell-based, human", "conditions": "compared to the wild type DLC1"}}, "data": [{"molecule": "B1", "values": [{"measurement": "EGF-stimulated DLC1/PIN phosphorylation", "setting": "[1]", "result": "completely blocked"}, {"measurement": "DLC1 promoter activity", "setting": "[2]", "result": "suppressed"}]}, {"molecule": "B2", "values": [{"measurement": "transfected cells in which formation of vesicles was completely blocked", "setting": "[3]; cotransfected with GFP-Pak1", "result": "more than 80%"}, {"measurement": "macropinocytic functions", "setting": "[3]; expression in human breast cancer cell line SKBR3", "result": "blocks macropinocytic functions"}, {"measurement": "macropinocytic functions", "setting": "[4]", "result": "blocks macropinocytic functions"}]}, {"molecule": "B3", "values": [{"measurement": "ERE-transactivation in the presence of tamoxifen", "setting": "[5]", "result": "reduced ERE-transactivation"}]}]}
